Starred links: 1 amine or outer side, 2 acyl side, 3 side chain; linkers in the order of their positions; H or OH if unused. Positions of bridges follow the written chain, without caps; N, C: chain ends. Non-standard residues stand in square brackets, D forms with d. Primed or numbered codes have the meaning given here. ξ: configuration not given here. PyrS2(3) = (S)-3-amino-1-((pent-4-en-1-yloxy)carbonyl)pyrrolidine-3-carboxylic acid, stapling residue, C=CCCCOC(=O)N1CC[C@@](N[*:1])(C(=O)[*:2])C1; PyrS2″ = (S)-3-amino-1-((pent-4-en-1-yloxy)carbonyl)pyrrolidine-3-carboxylic acid (stapling residue), C=CCCCOC(=O)N1CC[C@@](N[*:1])(C(=O)[*:2])C1; B5(16) = 2-amino-2-(pent-4-en-1-yl)hept-6-enoic acid = 2,2-bis(4-pentenyl)glycine (stitching residue), C=CCCCC(CCCC=C)(N[*:1])C(=O)[*:2]; B5(4) = 2,2-bis(4-pentenyl)glycine = 2-amino-2-(pent-4-en-1-yl)hept-6-enoic acid (stitching residue), C=CCCCC(CCCC=C)(N[*:1])C(=O)[*:2]; B5(20) = 2-amino-2-(pent-4-en-1-yl)hept-6-enoic acid = bis(4-pentenyl)glycine, stitching residue, C=CCCCC(CCCC=C)(N[*:1])C(=O)[*:2]; B5(6) = 2-amino-2-(pent-4-en-1-yl)hept-6-enoic acid (bis(4-pentenyl)glycine), stitching residue, C=CCCCC(CCCC=C)(N[*:1])C(=O)[*:2]; TfeGA = (S)-2-amino-3-((carboxymethyl)(2,2,2-trifluoroethyl)amino)propanoic acid, O=C([C@H](CN(CC(=O)[*:3])CC(F)(F)F)N[*:1])[*:2]; PyrS2 = (S)-3-amino-1-((pent-4-en-1-yloxy)carbonyl)pyrrolidine-3-carboxylic acid, C=CCCCOC(=O)N1CC[C@@](N[*:1])(C(=O)[*:2])C1; B5″ = 2,2-bis(4-pentenyl)glycine, stitching residue, C=CCCCC(CCCC=C)(N[*:1])C(=O)[*:2]; Phe(2-CONH2) = NC(=O)c1ccccc1C[C@H](N)C(=O)O; Phe(2-Cl) = N[C@@H](Cc1ccccc1Cl)C(=O)O; Phe(2-OMe) = COc1ccccc1C[C@H](N)C(=O)O; Bta = N[C@@H](Cc1csc2ccccc12)C(=O)O; αAllylPro = C=CC[C@@]1(C(=O)O)CCCN1; tBuAla = CC(C)(C)C[C@H](N)C(=O)O; 3Thi = N[C@@H](Cc1ccsc1)C(=O)O; Cha = N[C@@H](CC1CCCCC1)C(=O)O; S8 = C=CCCCCCC[C@](C)(N)C(=O)O; Thr(ol) = C[C@@H](O)[C@H](N)CO; R5 = C=CCCC[C@@](C)(N)C(=O)O; ξβ3hD = NC(CC(=O)O)CC(=O)O; Aib = CC(C)(N)C(=O)O
T1: full-length beta-Catenin (Uniprot ID P35222) (Homo sapiens (Human), UniProt P35222 1-781)
T1 construct: also called bCat; B-Catenin
T1 sequence: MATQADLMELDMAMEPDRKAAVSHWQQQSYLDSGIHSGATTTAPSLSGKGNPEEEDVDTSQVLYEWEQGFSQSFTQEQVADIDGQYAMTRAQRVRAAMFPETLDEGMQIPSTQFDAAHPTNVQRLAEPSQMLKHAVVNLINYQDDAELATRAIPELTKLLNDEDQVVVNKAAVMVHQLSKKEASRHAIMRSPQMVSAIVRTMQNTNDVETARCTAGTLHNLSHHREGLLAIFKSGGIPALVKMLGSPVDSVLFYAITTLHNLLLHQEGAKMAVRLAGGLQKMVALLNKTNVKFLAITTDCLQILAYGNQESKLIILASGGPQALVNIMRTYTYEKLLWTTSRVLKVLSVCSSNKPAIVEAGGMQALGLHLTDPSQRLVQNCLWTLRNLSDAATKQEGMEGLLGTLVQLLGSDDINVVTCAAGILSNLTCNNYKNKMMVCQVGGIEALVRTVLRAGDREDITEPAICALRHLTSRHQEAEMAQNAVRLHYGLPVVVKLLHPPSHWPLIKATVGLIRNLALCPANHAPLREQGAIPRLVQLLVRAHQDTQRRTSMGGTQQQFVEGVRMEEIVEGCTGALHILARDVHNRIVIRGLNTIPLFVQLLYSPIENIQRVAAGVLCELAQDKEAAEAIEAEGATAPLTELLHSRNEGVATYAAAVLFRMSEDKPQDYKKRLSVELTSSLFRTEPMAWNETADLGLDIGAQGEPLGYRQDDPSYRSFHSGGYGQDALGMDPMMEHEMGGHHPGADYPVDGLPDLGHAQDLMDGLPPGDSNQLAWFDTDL

T2: B-cat-Halo (UniProt P35222 1-781)
T2 sequence (looked up): T1 sequence

T3: B-cat-Halo (NanoBRET construct expressed in HEK293 cells) (UniProt P35222 1-781)
T3 sequence (looked up): T1 sequence

T4: B-cat-Halo (beta-catenin HaloTag construct expressed in HEK293 cells) (UniProt P35222 1-781)
T4 sequence (looked up): T1 sequence

T5: full-length beta-Catenin (Uniprot ID P35222) (Homo sapiens (Human), UniProt P35222 1-781)
T5 construct: also called bCat
T5 sequence: T1 sequence


Target: T1, full-length beta-Catenin (Uniprot ID …)
Experiment: FP competition: full-length beta-catenin 10 nM + 5FAM-TCF4(10-53) 10 nM
Procedure: (§1) The plate was incubated protected from light for 60 minutes at 20° C. prior to read. Reads were performed on a CLARIOstar plate reader (BMG Labtech) in duplicate, and data were fitted to a 1:1 binding model with hill slope using an in-house script. All provided concentrations are final concentrations.

Binder | IC50
Ac-[αAllylPro]DI[B5(20)]DEAAFN[S8][Phe(2-OMe)][Bta]H-NH2 (staple 1-4, 4-11, Stapled peptide composition) [I-512] | 0.02 µM
Ac-[αAllylPro]DI[B5(20)]DEAAFN[S8][Phe(2-CONH2)][Bta]H-NH2 (staple 1-4, 4-11, Stapled peptide composition) [I-514] | 0.03 µM
Ac-[αAllylPro]DL[B5(6)]DEAAFQ[S8]F[Bta]H-NH2 (staple 1-4, 4-11, Stapled peptide composition) [I-506] | 0.025 µM

Target: T2, B-cat-Halo
Experiment: cell-based or functional assay

Binder | NanoBRET Abs IC50 (uM); B-cat-Halo / TCF4-Luc in HEK293 cells
Ac-[αAllylPro]D[tBuAla][B5(4)]DTAAFT[PyrS2″][Phe(2-Cl)][Bta][Thr(ol)] (staple 1-4, 4-11) [I-1309] | 28.6 µM
Ac-[αAllylPro]N[tBuAla][B5(4)]DDAAFL[PyrS2][3Thi][Bta][Thr(ol)] (staple 1-4, 4-11) [I-1304] | 33.6 µM
Ac-[αAllylPro]D[Cha][B5(4)]DTAAFT[PyrS2″][Phe(2-Cl)][Bta][Thr(ol)] (staple 1-4, 4-11) [I-1310] | > 20 µM
Ac-[αAllylPro]D[tBuAla][B5(4)]DDAAFF[PyrS2][3Thi][Bta][Thr(ol)] (staple 1-4, 4-11) [I-1303] | 9.1 µM
Ac-[αAllylPro]D[Cha][B5(4)]DDAAFL[PyrS2″][Phe(2-Cl)][Bta][Thr(ol)] (staple 1-4, 4-11) [I-1307] | 38.8 µM
Ac-[αAllylPro]D[tBuAla][B5(4)]DDAAFF[PyrS2″][Phe(2-Cl)][Bta][Thr(ol)] (staple 1-4, 4-11) [I-1311] | 20.6 µM
Ac-[αAllylPro]D[tBuAla][B5(4)]DDAAFT[S8][Phe(2-Cl)][Bta][Thr(ol)] (staple 1-4, 4-11) [I-1308] | 11.9 µM

Target: T3, B-cat-Halo (NanoBRET construct …)
Experiment: cell-based or functional assay

Binder | NanoBRET Abs IC50
Ac-[αAllylPro]DI[B5(20)]DEAAFN[S8][Phe(2-OMe)][Bta]H-NH2 (staple 1-4, 4-11, Stapled peptide composition) [I-512] | 12.3 µM
Ac-[αAllylPro]DI[B5(20)]DEAAFN[S8][Phe(2-CONH2)][Bta]H-NH2 (staple 1-4, 4-11, Stapled peptide composition) [I-514] | > 20 µM
Ac-[αAllylPro]DA[B5(20)]DEAAFN[S8][3Thi][Bta]Q-NH2 (staple 1-4, 4-11; also: later-eluting HPLC peak of staple isomers) [I-519] | 28.8 µM
Ac-[αAllylPro]DI[B5(20)]DEAAFN[S8][3Thi][Bta]H-NH2 (staple 1-4, 4-11) [I-517] | 9.7 µM
Ac-[αAllylPro]DI[B5(20)]DEAAFN[S8][3Thi][Bta]Q-NH2 (staple 1-4, 4-11; also: later-eluting HPLC peak of staple isomers) [I-521] | 15.4 µM
Ac-[αAllylPro]DL[B5(6)]DEAAFQ[S8]F[Bta]H-NH2 (staple 1-4, 4-11, Stapled peptide composition) [I-506] | 8.9 µM
Ac-[αAllylPro]DA[B5(20)]DEAAFN[S8][3Thi][Bta]H-NH2 (staple 1-4, 4-11; also: later-eluting HPLC peak of staple isomers) [I-516] | 30.5 µM

Target: T4, B-cat-Halo (beta-catenin HaloTag …)
Experiment: cell-based or functional assay

Binder | NanoBRET Abs IC50
Ac-[αAllylPro]D[tBuAla][B5″]DDAAFL[S8][3Thi][Bta]H-NH2 (staple 1-4, 4-11) [I-1195] | 16.2 µM
Ac-[αAllylPro][ξβ3hD][tBuAla][B5(4)]D[TfeGA]AAFN[PyrS2″][3Thi][Bta]Q-NH2 (staple 1-4, 4-11) [I-1161] | > 20 µM
Ac-[αAllylPro]D[tBuAla][B5(4)]DTAAFT[PyrS2″][3Thi][Bta]Q-NH2 (staple 1-4, 4-11) [I-1166] | 14.6 µM
Ac-[αAllylPro]D[tBuAla][B5(4)]DD[Aib]AFL[PyrS2″][3Thi][Bta]Q-NH2 (staple 1-4, 4-11) [I-1177] | 4.3 µM
Ac-[αAllylPro]D[Cha][B5(4)]DTAAFT[PyrS2″][3Thi][Bta]Q-NH2 (staple 1-4, 4-11) [I-1173] | 17.2 µM
Ac-[αAllylPro]D[tBuAla][B5″]DDAAFL[S8][3Thi][Bta]Q-NH2 (staple 1-4, 4-11) [I-1188] | 7.2 µM
Ac-[αAllylPro]D[tBuAla][B5(4)]DTAAFT[PyrS2″][3Thi][Bta]S-NH2 (staple 1-4, 4-11) [I-1170] | 13.5 µM
Ac-[αAllylPro]D[tBuAla][B5(4)]DTAAFL[PyrS2″][3Thi][Bta]Q-NH2 (staple 1-4, 4-11) [I-1167] | 11.7 µM

Target: T5, full-length beta-Catenin (Uniprot ID …)
Experiment: fluorescence polarization competition; full-length beta-catenin; competitor 5FAM-TCF4(10-53) probe
Procedure: as §1

Binder | EC50
Ac-PD[Cha][R5]DDAAFT[PyrS2(3)][Phe(2-Cl)][Bta]S-NH2 (staple 4-11, stapled peptide (single staple)) [I-1184] | 0.176 µM
Ac-[αAllylPro]DF[B5(4)]DDLLFT[PyrS2″][Phe(2-Cl)][Bta]S-NH2 (staple 1-4, 4-11, stapled peptide) [I-1158] | 0.168 µM
Ac-[αAllylPro]DF[B5(4)]DDALFT[PyrS2″][Phe(2-Cl)][Bta]S-NH2 (staple 1-4, 4-11, stapled peptide) [I-1157] | 0.036 µM
Ac-[αAllylPro]DF[B5(16)]DDLAFT[PyrS2″][Phe(2-Cl)][Bta]S-NH2 (staple 1-4, 4-11, stapled peptide) [I-1156] | 0.014 µM
Ac-PD[tBuAla][R5]DDAAFN[PyrS2(3)][Phe(2-Cl)][Bta]Q-NH2 (staple 4-11, stapled peptide (single staple)) [I-1183] | 0.409 µM
Ac-[αAllylPro]DF[B5(16)]DDLLFS[PyrS2″][Phe(2-Cl)][Bta]Q-NH2 (staple 1-4, 4-11, stapled peptide) [I-1155] | 0.06 µM
Ac-[αAllylPro]DF[B5(16)]DDALFS[PyrS2″][Phe(2-Cl)][Bta]Q-NH2 (staple 1-4, 4-11, stapled peptide) [I-1154] | 0.045 µM
Ac-[αAllylPro]DF[B5(16)]DDLAFS[PyrS2″][Phe(2-Cl)][Bta]Q-NH2 (staple 1-4, 4-11, stapled peptide) [I-1153] | 0.012 µM

Source: patent publication US20240116985A1 (published 2024)
